Laboratory results taken from article PMC8172861, “Structural and phylogenetic analyses of resistance to next-generation aminoglycosides conferred by AAC(2′) enzymes” (Scientific Reports, 2021).

Target: the molecule itself
Test: crystal structure; crystals grown at 4 °C by sitting-drop vapour diffusion, 10 mg/mL AAC(2′)-Ia with 10 mM acetyl-CoA and 10 mM antibiotic (tobramycin, netilmicin or amikacin); two chains (A and B) in the models

B1: AAC(2′)-Ia from Providencia stuartii (enzyme)
chain: MGIEYRSLHTSQLTLSEKEALYDLLIEGFEGDFSHDDFAHTLGGMHVMAFDQQKLVGHVAIIQRHMALDNTPISVGYVEAMVVEQSYRRQGIGRQLMLQTNKIIASCYQLGLLSASDDGQKLYHSVGWQIWKGKLFELKQGSYIRSIEEEGGVMGWKADGEVDFTASLYCDFRGGDQW
notes: AAC(2′)-Ia, aminoglycoside 2′-N-acetyltransferase from Providencia stuartii; synthesized gene in pET-15b (NdeI/BamHI); Crystallised with acetyl-CoA or CoA and an aminoglycoside; also called aminoglycoside (2′)-N-acetyltransferase; source: E. coli BL21(DE3), purified (Ni-IDA-Sepharose, thrombin cleavage, benzamidine column, DEAE Sepharose); not shown: HIS-tag, N-terminal, cleaved
Question: Does B1 bind?
Answer: Result: binds
